In PMC11929908 (Nature Communications, 2025):
Each block holds one molecule with its values, some of them ahead of it.

Assays:
[1] = molecular target: PsiD R135A/Q136A (Psilocybe cubensis) (UniProt P0DPA6); assay: SEC
SEC = molecular target: the molecule itself; assay: SEC
crystal structure [2] = molecular target: the molecule itself; assay: crystal structure
crystal structure [3] = molecular target: the molecule itself; assay: crystal structure; remark: listed apart in the source

stoichiometry N [1]: 2
Molecule: PsiD R135A/Q136A (from UniProt P0DPA6 1-402) (enzyme)

B1: PsiD (1–439) S403A (enzyme, Psilocybe cubensis, UniProt P0DPA6 1-439, looked up)
chain: MQVIPACNSAAIRSLCPTPESLRNMGWLSVSDAVYSEFIGELATRASNRNYSNEFGLMQPIQEFKAFIESDPVVHQEFIDMFEGIQDSPRNYQELCNMFNDIFRKAPVYGDLGPPVYMIMAKLMNTRAGFSAFTRQRLNLHFKKLFDTWGLFLSSKDSRNVLVADQFDDRHCGWLNERALSAMVKHYNGRAFDEVFLCDKNAPYYGFNSYDDFFNRRFRNRDIDRPVVGGVNNTTLISAACESLSYNVSYDVQSLDTLVFKGETYSLKHLLNNDPFTPQFEHGSILQGFLNVTAYHRWHAPVNGTIVKIINVPGTYFAQAPSTIGDPIPDNDYDPPPYLKSLVYFSNIAARQIMFIEADNKEIGLIFLVFIGMTEISTCEATVSEGQHVNRGDDLGMFHFGGASFALGLRKDCRAEIVEKFTEPGTVIRINEVVAALKA
stoichiometry N (SEC): 2

B2: L-tryptophan decarboxylase PsiD, full-length (1–439), wildtype, self-cleaved mature enzyme (enzyme, Psilocybe cubensis)
chain 1: MQVIPACNSAAIRSLCPTPESLRNMGWLSVSDAVYSEFIGELATRASNRNYSNEFGLMQPIQEFKAFIESDPVVHQEFIDMFEGIQDSPRNYQELCNMFNDIFRKAPVYGDLGPPVYMIMAKLMNTRAGFSAFTRQRLNLHFKKLFDTWGLFLSSKDSRNVLVADQFDDRHCGWLNERALSAMVKHYNGRAFDEVFLCDKNAPYYGFNSYDDFFNRRFRNRDIDRPVVGGVNNTTLISAACESLSYNVSYDVQSLDTLVFKGETYSLKHLLNNDPFTPQFEHGSILQGFLNVTAYHRWHAPVNGTIVKIINVPGTYFAQAPSTIGDPIPDNDYDPPPYLKSLVYFSNIAARQIMFIEADNKEIGLIFLVFIGMTEISTCEATVSEGQHVNRGDDLGMFHFGG
chain 2: SSFALGLRKDCRAEIVEKFTEPGTVIRINEVVAALKA
modifications: pyruvoyl prosthetic group at 403 (Pvl403, formed from Ser403)
stoichiometry N (crystal structure [2]): 2

B3: PsiD (50–439), self-cleaved, co-crystallised with L-tryptophan (domain or fragment, Psilocybe cubensis)
chain 1: NYSNEFGLMQPIQEFKAFIESDPVVHQEFIDMFEGIQDSPRNYQELCNMFNDIFRKAPVYGDLGPPVYMIMAKLMNTRAGFSAFTRQRLNLHFKKLFDTWGLFLSSKDSRNVLVADQFDDRHCGWLNERALSAMVKHYNGRAFDEVFLCDKNAPYYGFNSYDDFFNRRFRNRDIDRPVVGGVNNTTLISAACESLSYNVSYDVQSLDTLVFKGETYSLKHLLNNDPFTPQFEHGSILQGFLNVTAYHRWHAPVNGTIVKIINVPGTYFAQAPSTIGDPIPDNDYDPPPYLKSLVYFSNIAARQIMFIEADNKEIGLIFLVFIGMTEISTCEATVSEGQHVNRGDDLGMFHFGG
chain 2: SSFALGLRKDCRAEIVEKFTEPGTVIRINEVVAALKA
modifications: pyruvoyl prosthetic group at 403 (Pvl403, formed from Ser403)
stoichiometry N (crystal structure [3]): 2
